The labels stand for the following.
B1: IgG1-ROR2-A-HC6LC3-FEAR (antibody)
heavy: EVQLLESGGGLVQPGGSLRLSCTVSGFSLSSYSMSWVRQAPGKGLEWIGVIYVNSKTWYADSVKGRFTISKDNSKNTVYLQMNSLRAEDTATYYCARGDAGYTTNSWLWGQGTLVTVSSASTKGPSVFPLAPSSKSTSGGTAALGCLVKDYFPEPVTVSWNSGALTSGVHTFPAVLQSSGLYSLSSVVTVPSSSLGTQTYICNVNHKPSNTKVDKRVEPKSCDKTHTCPPCPAPEFEGGPSVFLFPPKPKDTLMISRTPEVTCVVVAVSHEDPEVKFNWYVDGVEVHNAKTKPREEQYNSTYRVVSVLTVLHQDWLNGKEYKCKVSNKALPAPIEKTISKAKGQPREPQVYTLPPSREEMTKNQVSLTCLVKGFYPSDIAVEWESNGQPENNYKTTPPVLDSDGSFFLYSRLTVDKSRWQQGNVFSCSVMHEALHNHYTQKSLSLSPGK
VL: AFELTQSPSSLSASVGDRVTITCQASESIDNYLSWYQQKPGKAPKLLIYQAFKLASGVPSRFRGSGSGTDFTLTISSLQPEDFATYYCQSYSGISTTAFGGGTKVEIK
notes: Humanized variant
B2: IgG1-ROR2-A-HC1LC2-FEAR (antibody, V domains shown)
VH: QSVLESGGGLVQPGGSLRLSCTVSGFSLSSYSMSWVRQAPGKGLEWIGVIYVNSKTWYANWAKGRFTISKTSTTVDLKITSPTAEDTATYFCARGDAGYTTNSWLWGQGTLVTVSS
VL: AFELTQSPSSLSASVGDRVTITCQASESIDNYLSWYQQKPGKAPKLLIYQAFKLASGVPSRFRGSGSGTDFTLTISSLQSEDFATYYCQSYSGISTTAFGGGTEVVIK
notes: Humanized variant
B3: IgG1-ROR2-A-HC2LC3-FEAR (antibody)
heavy: QSVLESGGGLVQPGGSLRLSCTVSGFSLSSYSMSWVRQAPGKGLEWIGVIYVNSKTWYANWAKGRFTISKTSTTVYLQMNSLRAEDTATYFCARGDAGYTTNSWLWGQGTLVTVSSASTKGPSVFPLAPSSKSTSGGTAALGCLVKDYFPEPVTVSWNSGALTSGVHTFPAVLQSSGLYSLSSVVTVPSSSLGTQTYICNVNHKPSNTKVDKRVEPKSCDKTHTCPPCPAPEFEGGPSVFLFPPKPKDTLMISRTPEVTCVVVAVSHEDPEVKFNWYVDGVEVHNAKTKPREEQYNSTYRVVSVLTVLHQDWLNGKEYKCKVSNKALPAPIEKTISKAKGQPREPQVYTLPPSREEMTKNQVSLTCLVKGFYPSDIAVEWESNGQPENNYKTTPPVLDSDGSFFLYSRLTVDKSRWQQGNVFSCSVMHEALHNHYTQKSLSLSPGK
VL: AFELTQSPSSLSASVGDRVTITCQASESIDNYLSWYQQKPGKAPKLLIYQAFKLASGVPSRFRGSGSGTDFTLTISSLQPEDFATYYCQSYSGISTTAFGGGTKVEIK
notes: Humanized variant
B4: IgG1-ROR2-A-HC7LC3-FEAR (antibody)
heavy: EVQLLESGGGLVQPGGSLRLSCAASGFSLSSYSMSWVRQAPGKGLEWIGVIYVNSKTWYADSVKGRFTISKDNSKNTVYLQMNSLRAEDTATYYCARGDAGYTTNSWLWGQGTLVTVSSASTKGPSVFPLAPSSKSTSGGTAALGCLVKDYFPEPVTVSWNSGALTSGVHTFPAVLQSSGLYSLSSVVTVPSSSLGTQTYICNVNHKPSNTKVDKRVEPKSCDKTHTCPPCPAPEFEGGPSVFLFPPKPKDTLMISRTPEVTCVVVAVSHEDPEVKFNWYVDGVEVHNAKTKPREEQYNSTYRVVSVLTVLHQDWLNGKEYKCKVSNKALPAPIEKTISKAKGQPREPQVYTLPPSREEMTKNQVSLTCLVKGFYPSDIAVEWESNGQPENNYKTTPPVLDSDGSFFLYSRLTVDKSRWQQGNVFSCSVMHEALHNHYTQKSLSLSPGK
VL: AFELTQSPSSLSASVGDRVTITCQASESIDNYLSWYQQKPGKAPKLLIYQAFKLASGVPSRFRGSGSGTDFTLTISSLQPEDFATYYCQSYSGISTTAFGGGTKVEIK
notes: Humanized variant
B5: IgG1-ROR2-A-HC1LC1-FEAR (antibody, V domains shown)
VH: QSVLESGGGLVQPGGSLRLSCTVSGFSLSSYSMSWVRQAPGKGLEWIGVIYVNSKTWYANWAKGRFTISKTSTTVDLKITSPTAEDTATYFCARGDAGYTTNSWLWGQGTLVTVSS
VL: AFELTQSPSSLSASVGDRVTITCQASESIDNYCSWYQQKPGKAPKLLIYQAFKLASGVPSRFRGSGSGTDFTLTISSLQSEDFATYYCQSYSGISTTAFGGGTEVVIK
notes: Humanized variant
B6: IgG1-ROR2-A-HC6LC4-FEAR (antibody)
heavy: EVQLLESGGGLVQPGGSLRLSCTVSGFSLSSYSMSWVRQAPGKGLEWIGVIYVNSKTWYADSVKGRFTISKDNSKNTVYLQMNSLRAEDTATYYCARGDAGYTTNSWLWGQGTLVTVSSASTKGPSVFPLAPSSKSTSGGTAALGCLVKDYFPEPVTVSWNSGALTSGVHTFPAVLQSSGLYSLSSVVTVPSSSLGTQTYICNVNHKPSNTKVDKRVEPKSCDKTHTCPPCPAPEFEGGPSVFLFPPKPKDTLMISRTPEVTCVVVAVSHEDPEVKFNWYVDGVEVHNAKTKPREEQYNSTYRVVSVLTVLHQDWLNGKEYKCKVSNKALPAPIEKTISKAKGQPREPQVYTLPPSREEMTKNQVSLTCLVKGFYPSDIAVEWESNGQPENNYKTTPPVLDSDGSFFLYSRLTVDKSRWQQGNVFSCSVMHEALHNHYTQKSLSLSPGK
VL: DIQLTQSPSSLSASVGDRVTITCQASESIDNYLSWYQQKPGKAPKLLIYQAFKLASGVPSRFRGSGSGTDFTLTISSLQPEDFATYYCQSYSGISTTAFGGGTKVEIK
notes: Humanized variant
B7: IgG1-ROR2-A-HC1LC3-FEAR (antibody)
heavy: QSVLESGGGLVQPGGSLRLSCTVSGFSLSSYSMSWVRQAPGKGLEWIGVIYVNSKTWYANWAKGRFTISKTSTTVDLKITSPTAEDTATYFCARGDAGYTTNSWLWGQGTLVTVSSASTKGPSVFPLAPSSKSTSGGTAALGCLVKDYFPEPVTVSWNSGALTSGVHTFPAVLQSSGLYSLSSVVTVPSSSLGTQTYICNVNHKPSNTKVDKRVEPKSCDKTHTCPPCPAPEFEGGPSVFLFPPKPKDTLMISRTPEVTCVVVAVSHEDPEVKFNWYVDGVEVHNAKTKPREEQYNSTYRVVSVLTVLHQDWLNGKEYKCKVSNKALPAPIEKTISKAKGQPREPQVYTLPPSREEMTKNQVSLTCLVKGFYPSDIAVEWESNGQPENNYKTTPPVLDSDGSFFLYSRLTVDKSRWQQGNVFSCSVMHEALHNHYTQKSLSLSPGK
VL: AFELTQSPSSLSASVGDRVTITCQASESIDNYLSWYQQKPGKAPKLLIYQAFKLASGVPSRFRGSGSGTDFTLTISSLQPEDFATYYCQSYSGISTTAFGGGTKVEIK
notes: Humanized variant
B8: IgG1-ROR2-A-HC2LC2-FEAR (antibody, V domains shown)
VH: QSVLESGGGLVQPGGSLRLSCTVSGFSLSSYSMSWVRQAPGKGLEWIGVIYVNSKTWYANWAKGRFTISKTSTTVYLQMNSLRAEDTATYFCARGDAGYTTNSWLWGQGTLVTVSS
VL: AFELTQSPSSLSASVGDRVTITCQASESIDNYLSWYQQKPGKAPKLLIYQAFKLASGVPSRFRGSGSGTDFTLTISSLQSEDFATYYCQSYSGISTTAFGGGTEVVIK
notes: Humanized variant
B9: IgG1-ROR2-A-HC7LC4-FEAR (antibody)
heavy: EVQLLESGGGLVQPGGSLRLSCAASGFSLSSYSMSWVRQAPGKGLEWIGVIYVNSKTWYADSVKGRFTISKDNSKNTVYLQMNSLRAEDTATYYCARGDAGYTTNSWLWGQGTLVTVSSASTKGPSVFPLAPSSKSTSGGTAALGCLVKDYFPEPVTVSWNSGALTSGVHTFPAVLQSSGLYSLSSVVTVPSSSLGTQTYICNVNHKPSNTKVDKRVEPKSCDKTHTCPPCPAPEFEGGPSVFLFPPKPKDTLMISRTPEVTCVVVAVSHEDPEVKFNWYVDGVEVHNAKTKPREEQYNSTYRVVSVLTVLHQDWLNGKEYKCKVSNKALPAPIEKTISKAKGQPREPQVYTLPPSREEMTKNQVSLTCLVKGFYPSDIAVEWESNGQPENNYKTTPPVLDSDGSFFLYSRLTVDKSRWQQGNVFSCSVMHEALHNHYTQKSLSLSPGK
VL: DIQLTQSPSSLSASVGDRVTITCQASESIDNYLSWYQQKPGKAPKLLIYQAFKLASGVPSRFRGSGSGTDFTLTISSLQPEDFATYYCQSYSGISTTAFGGGTKVEIK
notes: Humanized variant
B10: IgG1-ROR2-A-HC1LC4-FEAR (antibody)
heavy: QSVLESGGGLVQPGGSLRLSCTVSGFSLSSYSMSWVRQAPGKGLEWIGVIYVNSKTWYANWAKGRFTISKTSTTVDLKITSPTAEDTATYFCARGDAGYTTNSWLWGQGTLVTVSSASTKGPSVFPLAPSSKSTSGGTAALGCLVKDYFPEPVTVSWNSGALTSGVHTFPAVLQSSGLYSLSSVVTVPSSSLGTQTYICNVNHKPSNTKVDKRVEPKSCDKTHTCPPCPAPEFEGGPSVFLFPPKPKDTLMISRTPEVTCVVVAVSHEDPEVKFNWYVDGVEVHNAKTKPREEQYNSTYRVVSVLTVLHQDWLNGKEYKCKVSNKALPAPIEKTISKAKGQPREPQVYTLPPSREEMTKNQVSLTCLVKGFYPSDIAVEWESNGQPENNYKTTPPVLDSDGSFFLYSRLTVDKSRWQQGNVFSCSVMHEALHNHYTQKSLSLSPGK
VL: DIQLTQSPSSLSASVGDRVTITCQASESIDNYLSWYQQKPGKAPKLLIYQAFKLASGVPSRFRGSGSGTDFTLTISSLQPEDFATYYCQSYSGISTTAFGGGTKVEIK
notes: Humanized variant
B11: IgG1-ROR2-A-HC2LC1-FEAR (antibody, V domains shown)
VH: QSVLESGGGLVQPGGSLRLSCTVSGFSLSSYSMSWVRQAPGKGLEWIGVIYVNSKTWYANWAKGRFTISKTSTTVYLQMNSLRAEDTATYFCARGDAGYTTNSWLWGQGTLVTVSS
VL: AFELTQSPSSLSASVGDRVTITCQASESIDNYCSWYQQKPGKAPKLLIYQAFKLASGVPSRFRGSGSGTDFTLTISSLQSEDFATYYCQSYSGISTTAFGGGTEVVIK
notes: Humanized variant
B12: IgG1-ROR2-A-HC7LC1-FEAR (antibody, V domains shown)
VH: EVQLLESGGGLVQPGGSLRLSCAASGFSLSSYSMSWVRQAPGKGLEWIGVIYVNSKTWYADSVKGRFTISKDNSKNTVYLQMNSLRAEDTATYYCARGDAGYTTNSWLWGQGTLVTVSS
VL: AFELTQSPSSLSASVGDRVTITCQASESIDNYCSWYQQKPGKAPKLLIYQAFKLASGVPSRFRGSGSGTDFTLTISSLQSEDFATYYCQSYSGISTTAFGGGTEVVIK
notes: Humanized variant

T1 sequence (Q01974 34-403): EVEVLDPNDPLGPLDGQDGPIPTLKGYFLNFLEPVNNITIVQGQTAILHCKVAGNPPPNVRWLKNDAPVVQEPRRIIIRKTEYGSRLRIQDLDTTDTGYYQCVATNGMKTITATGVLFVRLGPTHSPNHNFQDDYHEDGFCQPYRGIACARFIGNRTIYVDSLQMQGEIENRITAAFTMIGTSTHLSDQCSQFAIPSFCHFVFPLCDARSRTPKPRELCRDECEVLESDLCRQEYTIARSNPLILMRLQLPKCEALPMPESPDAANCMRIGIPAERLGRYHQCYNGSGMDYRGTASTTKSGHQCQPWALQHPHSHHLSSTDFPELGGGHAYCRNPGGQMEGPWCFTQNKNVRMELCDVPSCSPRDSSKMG

The experiment has as its target T1, his-tagged ROR2 extracellular domain (ROR2-ECD, G&P Biosciences, cat. no. FCL0192) (human, UniProt Q01974 34-403).
T1 construct: Bought protein; also called human ROR2-ECD; recombinant human ROR2-ECD; not shown: his tag
Nature of the experiment: BLI (Octet), antibody on anti-human IgG Fc sensor, ROR2-ECD 1.56-100 nM as analyte.
In turn, B1 gave a dissociation constant Kd of 4 nM, a koff of 0.0023 s⁻¹ and an association rate constant (kon) of 560000 M⁻¹ s⁻¹.
B2: the Kd turned out to be 1.9 nM, the koff stood at 0.0011 s⁻¹ and the kon was determined as 590000 M⁻¹ s⁻¹.
On the same counts, the results for B3 are 2 nM, 0.001 s⁻¹ and 490000 M⁻¹ s⁻¹.
On the same counts, the results for B4 are 5.1 nM, 0.0028 s⁻¹ and 550000 M⁻¹ s⁻¹.
On the same counts, the results for B5 are 1.6 nM, 0.00096 s⁻¹ and 590000 M⁻¹ s⁻¹.
B6 gave a Kd of 4.4 nM, a koff of 0.0025 s⁻¹ and an on-rate constant (kon) of 570000 M⁻¹ s⁻¹.
B7 yielded a Kd of 1.8 nM, an off-rate (koff) of 0.00097 s⁻¹ and a kon of 550000 M⁻¹ s⁻¹.
For the molecule B8, the Kd was 1.8 nM, the off-rate constant (koff) is 0.00089 s⁻¹ and the on-rate constant (kon) stood at 510000 M⁻¹ s⁻¹.
In the same order, the values of B9 are 5.6 nM, 0.0032 s⁻¹ and 570000 M⁻¹ s⁻¹.
Molecule B10 gave an equilibrium dissociation constant (Kd) of 2 nM, a koff of 0.0012 s⁻¹ and an association rate constant (kon) of 560000 M⁻¹ s⁻¹.
In the same order, the values of B11 are 1.7 nM, 0.00085 s⁻¹ and 510000 M⁻¹ s⁻¹.
Take B12: binding was put at a Kd of 3.8 nM, the koff stood at 0.0021 s⁻¹ and the kon turned out to be 540000 M⁻¹ s⁻¹.

The values are drawn from patent US20230365714A1 (published 2023).
